In patent US20040210041A1:
Positions of bridges follow the written chain, without caps; N, C: chain ends. Groups on a side chain read outwards from the residue. Chains are numbered I, II in the order given. *: point of attachment. Biotin = O=C1N[C@H]2[C@H](CS[C@H]2CCCCC(=O)*)N1; AEEA = NCCOCCOCC(=O)O

Tests used:
[1] = biological target: KDR (VEGFR-2), full-length receptor on cells (human), P35968; assay: specific binding of neutravidin-HRP complex at 3.33 nM to KDR-transfected cells; reference P5-XB (1X) + P1-XB (3X)
[2] = biological target: KDR (VEGFR-2), full-length receptor on cells (human), P35968; assay: competition with 300 pM 125I-VEGF on KDR-transfected 293H cells; peptide 30 µM; details: remark: other sources report otherwise
[3] = biological target: KDR (VEGFR-2), full-length receptor on cells (human), P35968; assay: competition with 300 pM 125I-VEGF on KDR-transfected 293H cells; peptide 0.3 µM; details: remark: other sources report otherwise
[4] = biological target: KDR (VEGFR-2), full-length receptor on cells (human), P35968; assay: specific binding of neutravidin-HRP complex at 2.78 nM to KDR-transfected cells; reference P1-XB (3X) + P6-XB (1X) at 5.55 nM

Sequence of KDR (VEGFR-2), full-length receptor on cells (human), P35968 (P35968 20-1356): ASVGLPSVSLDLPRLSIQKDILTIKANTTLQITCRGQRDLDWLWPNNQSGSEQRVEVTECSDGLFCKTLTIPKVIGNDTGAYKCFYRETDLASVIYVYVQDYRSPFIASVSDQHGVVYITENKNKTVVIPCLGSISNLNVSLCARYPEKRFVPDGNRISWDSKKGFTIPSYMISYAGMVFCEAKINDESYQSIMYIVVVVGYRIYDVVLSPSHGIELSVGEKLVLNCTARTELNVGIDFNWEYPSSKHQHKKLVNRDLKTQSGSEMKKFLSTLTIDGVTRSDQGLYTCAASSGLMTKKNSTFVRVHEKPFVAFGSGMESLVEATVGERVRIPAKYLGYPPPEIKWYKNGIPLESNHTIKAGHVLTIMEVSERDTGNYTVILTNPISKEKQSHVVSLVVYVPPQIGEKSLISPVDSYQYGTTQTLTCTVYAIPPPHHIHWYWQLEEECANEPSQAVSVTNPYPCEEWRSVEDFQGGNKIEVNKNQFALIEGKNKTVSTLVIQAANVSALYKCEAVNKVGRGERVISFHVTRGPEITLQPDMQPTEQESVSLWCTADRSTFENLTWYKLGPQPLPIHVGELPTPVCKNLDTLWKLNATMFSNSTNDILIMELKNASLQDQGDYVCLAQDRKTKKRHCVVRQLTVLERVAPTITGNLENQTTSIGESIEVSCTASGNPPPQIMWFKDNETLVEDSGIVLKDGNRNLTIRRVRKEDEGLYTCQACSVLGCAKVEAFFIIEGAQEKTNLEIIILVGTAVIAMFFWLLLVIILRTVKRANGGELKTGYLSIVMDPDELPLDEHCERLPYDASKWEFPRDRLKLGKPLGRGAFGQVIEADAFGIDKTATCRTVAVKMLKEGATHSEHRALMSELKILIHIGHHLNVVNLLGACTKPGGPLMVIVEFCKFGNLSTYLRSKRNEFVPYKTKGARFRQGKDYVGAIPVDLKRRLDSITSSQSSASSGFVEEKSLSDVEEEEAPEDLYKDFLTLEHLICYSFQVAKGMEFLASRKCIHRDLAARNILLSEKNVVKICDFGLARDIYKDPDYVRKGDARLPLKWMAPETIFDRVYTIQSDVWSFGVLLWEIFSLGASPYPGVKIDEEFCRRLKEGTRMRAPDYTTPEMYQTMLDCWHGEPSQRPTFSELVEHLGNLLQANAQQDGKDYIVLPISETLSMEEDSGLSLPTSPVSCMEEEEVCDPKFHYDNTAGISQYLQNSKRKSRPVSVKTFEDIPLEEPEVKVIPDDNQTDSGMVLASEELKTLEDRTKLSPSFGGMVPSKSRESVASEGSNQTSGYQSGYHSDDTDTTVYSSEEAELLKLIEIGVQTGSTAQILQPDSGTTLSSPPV

Heteromer/Monomer Ratio [1] | Binder | other results
109 fold | P1-XB (2X) + P6-XB (1X) + P5-XB (1X) / neutravidin-HRP (peptide, not shown: large carriers; small tags and cut ends, disulfide I:6-I:16, II:6-II:13 (inferred); not fully specified; also: bound via biotin to neutravidin-HRP) peptide 1: Ac-GDSRVCWEDSWGGEVCFRYDPGGGK([AEEA-AEEA-Biotin])-NH2 peptide 2: Ac-AGPKWCEEDWYYCMITGTGGGK([AEEA-AEEA-Biotin])-NH2 | 
213 fold | P1-XB (1X) + P6-XB (1X) + P5-XB (2X) / neutravidin-HRP (peptide, not shown: large carriers; small tags and cut ends, disulfide I:6-I:16, II:6-II:13 (inferred); not fully specified; also: bound via biotin to neutravidin-HRP) peptide 1: Ac-GDSRVCWEDSWGGEVCFRYDPGGGK([AEEA-AEEA-Biotin])-NH2 peptide 2: Ac-AGPKWCEEDWYYCMITGTGGGK([AEEA-AEEA-Biotin])-NH2 | 
242 fold | P1-XB (1X) + P6-XB (2X) + P5-XB (1X) / neutravidin-HRP (peptide, not shown: large carriers; small tags and cut ends, disulfide I:6-I:16, II:6-II:13 (inferred); not fully specified; also: bound via biotin to neutravidin-HRP) peptide 1: Ac-GDSRVCWEDSWGGEVCFRYDPGGGK([AEEA-AEEA-Biotin])-NH2 peptide 2: Ac-AGPKWCEEDWYYCMITGTGGGK([AEEA-AEEA-Biotin])-NH2 | 
 | Ac-AGPKWCEEDWYYCMITGTGGGK([AEEA-AEEA-Biotin])-NH2 (disulfide 6-13 (inferred)) [P5-XB] | % inhibition of 125I-labeled VEGF binding [2]: 48%; % inhibition of 125I-labeled VEGF binding [3]: 24.4%
 | P1-XB (1X) + P6-XB (1X) + P12-XB (2X) / neutravidin-HRP (peptide, not shown: large carriers; small tags and cut ends, disulfide I:6-I:16, II:6-II:13 (inferred); not fully specified; also: bound via biotin to neutravidin-HRP) peptide 1: Ac-GDSRVCWEDSWGGEVCFRYDPGGGK([AEEA-AEEA-Biotin])-NH2 peptide 2: Ac-AGPTWCEDDWYYCWLFGTGGGK([AEEA-AEEA-Biotin])-NH2 | Heteromer/Monomer Ratio [4]: 47 fold
